According to patent publication US20150087577A1 (POLYPHOR, published 2015):
Blank lines part the entries; values can stand above or below the binder they belong to. Bridges are numbered along the chain shown (N, C = ends). [ ]: non-standard residue; d: D form. Phe(4-F) = N[C@@H](Cc1ccc(F)cc1)C(=O)O; 2Nal = N[C@@H](Cc1ccc2ccccc2c1)C(=O)O; Cit = NC(=O)NCCC[C@H](N)C(=O)O

Target: human CXCR4 (human, UniProt P61073 1-352)
Assay: cell-based or functional assay

Chain of human CXCR4 (P61073 whole entry): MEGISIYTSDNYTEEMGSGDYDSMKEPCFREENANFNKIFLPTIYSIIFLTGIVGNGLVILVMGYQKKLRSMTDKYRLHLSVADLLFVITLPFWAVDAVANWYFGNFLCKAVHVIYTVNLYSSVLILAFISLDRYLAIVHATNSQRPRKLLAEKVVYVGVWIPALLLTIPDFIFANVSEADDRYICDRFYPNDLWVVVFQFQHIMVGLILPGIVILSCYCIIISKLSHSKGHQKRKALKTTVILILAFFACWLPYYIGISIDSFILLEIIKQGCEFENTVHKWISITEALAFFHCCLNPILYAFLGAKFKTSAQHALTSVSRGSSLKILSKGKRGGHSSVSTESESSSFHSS

B2: Example 71 (peptide)
peptide: cyclo(YRICRG[dP]RR[2Nal]CYQK[dP]P)
modifications: disulfide 4-11
SMILES: CC[C@H](C)[C@@H]1NC(=O)[C@H](CCCNC(=N)N)NC(=O)[C@H](Cc2ccc(O)cc2)NC(=O)[C@@H]2CCCN2C(=O)[C@H]2CCCN2C(=O)[C@H](CCCCN)NC(=O)[C@H](CCC(N)=O)NC(=O)[C@H](Cc2ccc(O)cc2)NC(=O)[C@@H]2CSSC[C@H](NC1=O)C(=O)N[C@@H](CCCNC(=N)N)C(=O)NCC(=O)N1CCC[C@@H]1C(=O)N[C@@H](CCCNC(=N)N)C(=O)N[C@@H](CCCNC(=N)N)C(=O)N[C@@H](Cc1ccc3ccccc3c1)C(=O)N2
IC50 (nM) Ca2+ assay (method 2): 2.7 nM

B3: Example 67 (peptide)
peptide: cyclo(TR[Cit]CRG[dP]RR[2Nal]CYQK[dP]P)
modifications: disulfide 4-11
SMILES: C[C@@H](O)[C@@H]1NC(=O)[C@@H]2CCCN2C(=O)[C@H]2CCCN2C(=O)[C@H](CCCCN)NC(=O)[C@H](CCC(N)=O)NC(=O)[C@H](Cc2ccc(O)cc2)NC(=O)[C@@H]2CSSC[C@H](NC(=O)[C@H](CCCNC(N)=O)NC(=O)[C@H](CCCNC(=N)N)NC1=O)C(=O)N[C@@H](CCCNC(=N)N)C(=O)NCC(=O)N1CCC[C@@H]1C(=O)N[C@@H](CCCNC(=N)N)C(=O)N[C@@H](CCCNC(=N)N)C(=O)N[C@@H](Cc1ccc3ccccc3c1)C(=O)N2
IC50 (nM) Ca2+ assay (method 2): 2.4 nM

B4: Example 66 (peptide)
peptide: cyclo(WR[Cit]CRG[dP]RR[2Nal]CYQK[dP]P)
modifications: disulfide 4-11
SMILES: N=C(N)NCCC[C@@H]1NC(=O)[C@@H]2CSSC[C@H](NC(=O)[C@H](Cc3ccc4ccccc4c3)NC(=O)[C@H](CCCNC(=N)N)NC(=O)[C@H](CCCNC(=N)N)NC(=O)[C@H]3CCCN3C(=O)CNC1=O)C(=O)N[C@@H](Cc1ccc(O)cc1)C(=O)N[C@@H](CCC(N)=O)C(=O)N[C@@H](CCCCN)C(=O)N1CCC[C@@H]1C(=O)N1CCC[C@H]1C(=O)N[C@@H](Cc1c[nH]c3ccccc13)C(=O)N[C@@H](CCCNC(=N)N)C(=O)N[C@@H](CCCNC(N)=O)C(=O)N2
IC50 (nM) Ca2+ assay (method 2): 3.8 nM

B5: Example 72 (peptide)
peptide: cyclo(YRYCRG[dP]RR[2Nal]CYQK[dP]P)
modifications: disulfide 4-11
SMILES: N=C(N)NCCC[C@@H]1NC(=O)[C@@H]2CSSC[C@H](NC(=O)[C@H](Cc3ccc4ccccc4c3)NC(=O)[C@H](CCCNC(=N)N)NC(=O)[C@H](CCCNC(=N)N)NC(=O)[C@H]3CCCN3C(=O)CNC1=O)C(=O)N[C@@H](Cc1ccc(O)cc1)C(=O)N[C@@H](CCC(N)=O)C(=O)N[C@@H](CCCCN)C(=O)N1CCC[C@@H]1C(=O)N1CCC[C@H]1C(=O)N[C@@H](Cc1ccc(O)cc1)C(=O)N[C@@H](CCCNC(=N)N)C(=O)N[C@@H](Cc1ccc(O)cc1)C(=O)N2
IC50 (nM) Ca2+ assay (method 2): 3.9 nM

B6: Example 74 (peptide)
peptide: cyclo(YRPCRG[dP]RR[2Nal]CYQK[dP]P)
modifications: disulfide 4-11
SMILES: N=C(N)NCCC[C@@H]1NC(=O)[C@@H]2CSSC[C@H](NC(=O)[C@H](Cc3ccc4ccccc4c3)NC(=O)[C@H](CCCNC(=N)N)NC(=O)[C@H](CCCNC(=N)N)NC(=O)[C@H]3CCCN3C(=O)CNC1=O)C(=O)N[C@@H](Cc1ccc(O)cc1)C(=O)N[C@@H](CCC(N)=O)C(=O)N[C@@H](CCCCN)C(=O)N1CCC[C@@H]1C(=O)N1CCC[C@H]1C(=O)N[C@@H](Cc1ccc(O)cc1)C(=O)N[C@@H](CCCNC(=N)N)C(=O)N1CCC[C@H]1C(=O)N2
IC50 (nM) Ca2+ assay (method 2): 19.5 nM

B8: Example 4 (peptide)
peptide: cyclo(YR[Cit]VRRR[2Nal]FY[Cit]K[dP]P)
SMILES: CC(C)[C@@H]1NC(=O)[C@H](CCCNC(N)=O)NC(=O)[C@H](CCCNC(=N)N)NC(=O)[C@H](Cc2ccc(O)cc2)NC(=O)[C@@H]2CCCN2C(=O)[C@H]2CCCN2C(=O)[C@H](CCCCN)NC(=O)[C@H](CCCNC(N)=O)NC(=O)[C@H](Cc2ccc(O)cc2)NC(=O)[C@H](Cc2ccccc2)NC(=O)[C@H](Cc2ccc3ccccc3c2)NC(=O)[C@H](CCCNC(=N)N)NC(=O)[C@H](CCCNC(=N)N)NC(=O)[C@H](CCCNC(=N)N)NC1=O
IC50 (nM) Ca2+ assay (method 1): 2540 nM

B11: Example 76 (peptide)
peptide: cyclo(YR[Cit]CRG[dP][Phe(4-F)]R[2Nal]CYQK[dP]P)
modifications: disulfide 4-11
SMILES: N=C(N)NCCC[C@@H]1NC(=O)[C@@H]2CSSC[C@H](NC(=O)[C@H](Cc3ccc4ccccc4c3)NC(=O)[C@H](CCCNC(=N)N)NC(=O)[C@H](Cc3ccc(F)cc3)NC(=O)[C@H]3CCCN3C(=O)CNC1=O)C(=O)N[C@@H](Cc1ccc(O)cc1)C(=O)N[C@@H](CCC(N)=O)C(=O)N[C@@H](CCCCN)C(=O)N1CCC[C@@H]1C(=O)N1CCC[C@H]1C(=O)N[C@@H](Cc1ccc(O)cc1)C(=O)N[C@@H](CCCNC(=N)N)C(=O)N[C@@H](CCCNC(N)=O)C(=O)N2
IC50 (nM) Ca2+ assay (method 2): 5.6 nM

B12: Example 73 (peptide)
peptide: cyclo(YRWCRG[dP]RR[2Nal]CYQK[dP]P)
modifications: disulfide 4-11
SMILES: N=C(N)NCCC[C@@H]1NC(=O)[C@@H]2CSSC[C@H](NC(=O)[C@H](Cc3ccc4ccccc4c3)NC(=O)[C@H](CCCNC(=N)N)NC(=O)[C@H](CCCNC(=N)N)NC(=O)[C@H]3CCCN3C(=O)CNC1=O)C(=O)N[C@@H](Cc1ccc(O)cc1)C(=O)N[C@@H](CCC(N)=O)C(=O)N[C@@H](CCCCN)C(=O)N1CCC[C@@H]1C(=O)N1CCC[C@H]1C(=O)N[C@@H](Cc1ccc(O)cc1)C(=O)N[C@@H](CCCNC(=N)N)C(=O)N[C@@H](Cc1c[nH]c3ccccc13)C(=O)N2
IC50 (nM) Ca2+ assay (method 2): 8.8 nM

Further lines, results first:

IC50 (nM) Ca2+ assay (method 2): 1.8 nM
B1: Example 69 (peptide)
peptide: cyclo(YRRCRG[dP]RR[2Nal]CYQK[dP]P)
modifications: disulfide 4-11
SMILES: N=C(N)NCCC[C@@H]1NC(=O)[C@@H]2CSSC[C@H](NC(=O)[C@H](Cc3ccc4ccccc4c3)NC(=O)[C@H](CCCNC(=N)N)NC(=O)[C@H](CCCNC(=N)N)NC(=O)[C@H]3CCCN3C(=O)CNC1=O)C(=O)N[C@@H](Cc1ccc(O)cc1)C(=O)N[C@@H](CCC(N)=O)C(=O)N[C@@H](CCCCN)C(=O)N1CCC[C@@H]1C(=O)N1CCC[C@H]1C(=O)N[C@@H](Cc1ccc(O)cc1)C(=O)N[C@@H](CCCNC(=N)N)C(=O)N[C@@H](CCCNC(=N)N)C(=O)N2

IC50 (nM) Ca2+ assay (method 2): 3.5 nM
B7: Example 75 (peptide)
peptide: cyclo(YRECRG[dP]RR[2Nal]CYQK[dP]P)
modifications: disulfide 4-11
SMILES: N=C(N)NCCC[C@@H]1NC(=O)[C@@H]2CSSC[C@H](NC(=O)[C@H](Cc3ccc4ccccc4c3)NC(=O)[C@H](CCCNC(=N)N)NC(=O)[C@H](CCCNC(=N)N)NC(=O)[C@H]3CCCN3C(=O)CNC1=O)C(=O)N[C@@H](Cc1ccc(O)cc1)C(=O)N[C@@H](CCC(N)=O)C(=O)N[C@@H](CCCCN)C(=O)N1CCC[C@@H]1C(=O)N1CCC[C@H]1C(=O)N[C@@H](Cc1ccc(O)cc1)C(=O)N[C@@H](CCCNC(=N)N)C(=O)N[C@@H](CCC(=O)O)C(=O)N2

IC50 (nM) Ca2+ assay (method 2): 1.1 nM
B9: Example 68 (peptide)
peptide: cyclo(ER[Cit]CRG[dP]RR[2Nal]CYQK[dP]P)
modifications: disulfide 4-11
SMILES: N=C(N)NCCC[C@@H]1NC(=O)[C@@H]2CSSC[C@H](NC(=O)[C@H](Cc3ccc4ccccc4c3)NC(=O)[C@H](CCCNC(=N)N)NC(=O)[C@H](CCCNC(=N)N)NC(=O)[C@H]3CCCN3C(=O)CNC1=O)C(=O)N[C@@H](Cc1ccc(O)cc1)C(=O)N[C@@H](CCC(N)=O)C(=O)N[C@@H](CCCCN)C(=O)N1CCC[C@@H]1C(=O)N1CCC[C@H]1C(=O)N[C@@H](CCC(=O)O)C(=O)N[C@@H](CCCNC(=N)N)C(=O)N[C@@H](CCCNC(N)=O)C(=O)N2

IC50 (nM) Ca2+ assay (method 1): 1000 nM
B10: Example 3 (peptide)
peptide: cyclo(YR[Cit]FRRR[2Nal]FY[Cit]K[dP]P)
SMILES: N=C(N)NCCC[C@@H]1NC(=O)[C@H](CCCNC(=N)N)NC(=O)[C@H](Cc2ccccc2)NC(=O)[C@H](CCCNC(N)=O)NC(=O)[C@H](CCCNC(=N)N)NC(=O)[C@H](Cc2ccc(O)cc2)NC(=O)[C@@H]2CCCN2C(=O)[C@H]2CCCN2C(=O)[C@H](CCCCN)NC(=O)[C@H](CCCNC(N)=O)NC(=O)[C@H](Cc2ccc(O)cc2)NC(=O)[C@H](Cc2ccccc2)NC(=O)[C@H](Cc2ccc3ccccc3c2)NC(=O)[C@H](CCCNC(=N)N)NC1=O

IC50 (nM) Ca2+ assay (method 2): 19.5 nM
B13: Example 70 (peptide)
peptide: cyclo(YRHCRG[dP]RR[2Nal]CYQK[dP]P)
modifications: disulfide 4-11
SMILES: N=C(N)NCCC[C@@H]1NC(=O)[C@@H]2CSSC[C@H](NC(=O)[C@H](Cc3ccc4ccccc4c3)NC(=O)[C@H](CCCNC(=N)N)NC(=O)[C@H](CCCNC(=N)N)NC(=O)[C@H]3CCCN3C(=O)CNC1=O)C(=O)N[C@@H](Cc1ccc(O)cc1)C(=O)N[C@@H](CCC(N)=O)C(=O)N[C@@H](CCCCN)C(=O)N1CCC[C@@H]1C(=O)N1CCC[C@H]1C(=O)N[C@@H](Cc1ccc(O)cc1)C(=O)N[C@@H](CCCNC(=N)N)C(=O)N[C@@H](Cc1c[nH]cn1)C(=O)N2

IC50 (nM) Ca2+ assay (method 2): 3.9 nM
B14: Example 65 (peptide)
peptide: cyclo(IR[Cit]CRG[dP]RR[2Nal]CYQK[dP]P)
modifications: disulfide 4-11
SMILES: CC[C@H](C)[C@@H]1NC(=O)[C@@H]2CCCN2C(=O)[C@H]2CCCN2C(=O)[C@H](CCCCN)NC(=O)[C@H](CCC(N)=O)NC(=O)[C@H](Cc2ccc(O)cc2)NC(=O)[C@@H]2CSSC[C@H](NC(=O)[C@H](CCCNC(N)=O)NC(=O)[C@H](CCCNC(=N)N)NC1=O)C(=O)N[C@@H](CCCNC(=N)N)C(=O)NCC(=O)N1CCC[C@@H]1C(=O)N[C@@H](CCCNC(=N)N)C(=O)N[C@@H](CCCNC(=N)N)C(=O)N[C@@H](Cc1ccc3ccccc3c1)C(=O)N2
